Data: PMC10844685

Molecular target: pyruvate kinase isoform M2 (PKM2) (human (endogenous in MDA-MB-231 and Hs578T)) (UniProt P14618)
Experiment: native gel or EMSA; total protein of MDA-MB-231 and Hs578T cells, not heat-denatured, non-denaturing loading buffer, native PAGE running buffer, western blot with anti-PKM2; cells with miR-29c-3p inhibitor, with or without TRIM9 knockdown

Sequence of pyruvate kinase isoform M2 (PKM2), P14618 1-531 (enzyme; other documents disagree on this pair) (P14618 whole entry, canonical isoform): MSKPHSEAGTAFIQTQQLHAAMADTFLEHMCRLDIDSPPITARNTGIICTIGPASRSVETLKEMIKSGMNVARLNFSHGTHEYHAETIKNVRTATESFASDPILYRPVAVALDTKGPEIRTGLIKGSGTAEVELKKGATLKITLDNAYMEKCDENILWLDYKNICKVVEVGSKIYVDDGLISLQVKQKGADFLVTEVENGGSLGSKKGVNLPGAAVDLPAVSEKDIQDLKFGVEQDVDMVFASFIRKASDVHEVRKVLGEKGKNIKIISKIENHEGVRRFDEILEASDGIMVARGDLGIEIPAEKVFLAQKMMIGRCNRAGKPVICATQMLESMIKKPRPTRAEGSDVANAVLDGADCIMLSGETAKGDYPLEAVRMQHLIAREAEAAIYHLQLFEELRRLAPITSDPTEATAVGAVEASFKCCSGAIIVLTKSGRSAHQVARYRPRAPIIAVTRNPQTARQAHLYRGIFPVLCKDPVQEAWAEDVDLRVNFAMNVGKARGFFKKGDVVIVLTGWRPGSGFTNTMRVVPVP

**Q.** With “pyruvate kinase isoform M2 (PKM2), P14618 1-531 (enzyme; other documents disagree on this pair)” as the substance, how does the stoichiometry N read?
**A.** The stoichiometry N was 2.
